Measured values: the nanobody polyreactivity screen of Harvey et al. (2022)

Assay: yeast display, Sf9 membrane polyspecificity reagent, FACS + sequencing; frameworks hold sequencing errors
How it was run: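 Nanobodies came from a synthetic yeast display library in Saccharomyces cerevisiae BJ5465, induced with galactose for 36–48 hours and stained for 1 hour at 4 °C with 10% biotinylated, detergent-solubilized Sf9 membrane reagent. Cells were enriched on streptavidin microbeads and then FACS-sorted, with low and high (top ~1%) gates set on anti-HA fluorescence for expression and streptavidin fluorescence for reagent binding. Each polyreactivity label reflects the gate a clone came from. Genes were amplified by colony PCR, sequenced by MiSeq 2 × 250 and filtered by CDR length.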

Sequence	polyreactivity (PSR sort gate)
QVQLVESGGGLVQAGGSLRLSCAASGSIFYRYVMGWYRQAPGKERELVAAITSTGSTYYADSVKGRFTISRDNAKNTVYLQMNSLKPEDTAVYYCNTLYARPLRDSYGYWGQGTQVTVSS	high polyreactivity
QVQLVESGGGLVQAGGSLRLSCAASGRTFTWNVMGWYRQAPGKERELVAAITTDDRTYADSEKGRFTISRDNAKNTVYLQMNSLKQEDTAVYYCATVVAWTSRPVGEDYWGQGTQVTVSS	low polyreactivity
QVQLVESGGGLVQAGGSLRLICAASGSTFYSYAMGWYRQVPGKERELVAAISRRGGSTYYADSVKGRFTISRDNAKNTVYLQMNSLKPEDTAVYYCAADWSRSSAEVDYWGQGTQVTVSS	high polyreactivity
QVQLVESGGGIVQAGGSLRLSSAASGFIFRYYAMGWYRQARGNEREWVAAISSGGRTSYADSVKGRFTISRDNAKNTVYLQMNSLTPEDTAVYYCAADRWRCLFYYGNDYWGQGTQVTVSS	high polyreactivity
QVQLVQSGGGLVQAGGSLRLSCAASGITFWYYAMGWYRQAPGKERELVAAITGGSTYYADSVKGRFTISRDNAKNTVYLQMNSLKPEDTAVYYCNADSLFEYLDYDYWGQGTQVTVSS	low polyreactivity
QVQLVESGGGLVQEGCSLRLICAASGSIFGYYAMGWYRQAPGKERELVAAISTAGSTNYADSVKGRFTISRDNAKNTVYLQMNSLKPEDTAVYYCAKKSSWYYPERFDYWGQGTQVTVSS	low polyreactivity
QVQLVESGGGLVQAGGSLRLSCAASGFIFGRYTMGWYRQAPWKERELVAAISGSGGRTYYADSVKGRFTISRDNAKNTVYLQMNSLKPEDTSVYYCATYGYFYYDYWGQGTQVTVSS	high polyreactivity
QVQLVESGGGLVQAGGSLRLSCAASGRTFHTYAMGWYRQAPGKERELVARITRSGTSTYYADSVKGRFTISRDNAKNTVYLQMNSLKPEDTAVYYCAKPWFLWGYSTSYDWGQGTQVTVSS	high polyreactivity
QVQLVESGGGLDQAGGSLRLICAASGRIFVYYTMVWYRQAPGKERELVAAITGSGGSTYYADSVKGRFTISRDNAKNTVYLQMNSLKPEDTAVYYCAVYDSYRSRTHRYPATFAYGSWGQGNQVTVSS	high polyreactivity
QVQLVESGGGLVQAGGSLRLSCAASGRILLTYAMGWYRQAPGKERELVAAISSDSRTYYADSVKGLFTISRDNAKNTVYLQMNSLKPEDTAVYYCVRRRYKYDYWGQGTQVTVSS	low polyreactivity
QVQLVESGGGLVQAGGSLRLSCAASGRTFRPYAMGWYRQAPGKERELVAAIDSSGTSTYYADSVKGRFTISRDNAKNTVYLKMNSLKPEDTAVYYCAKAWPDHWYSRYDYWGQGTQVTVSS	low polyreactivity
QVQLVESGGGLVQAGGSLRLSSASSGSTFWIYAMGWYRQAPGKEREMVASIRRACNTYADSVKGRFTISRDNAKNTVYLQMNSLKPEDTAVYYCNARLYLPYGYRRSNGYESDYWGQGTQVTVSS	high polyreactivity
QVQLVESGGGLVQAGVSLRLSCAASGRIFFPNGMGCYRQAPGKESELVATISRIGGSTYYADSVKGRFTISRDNAKNTVYLQMNSLKPEDTAVYYFAAQYSYGVYWTLPYGYNYWGQGTQVTVSS	low polyreactivity
QDQLVESGGGLVQAGGSLRLSCAASGSTFSYNMGWYRQAPGKERELVARITRGGGSTYYADSVKGRFTISRDNAKNTVYLQMNSLKPEDTAVYYCAADRYFRYYYWGQGTQVTVSS	high polyreactivity
QVQLVESGGGLVQAGGSLRLSCAASGLTCYYYARGLYRQAPGKERELVADISSGGSTKYADSVKGRFTISRDNAKNTVYLQMNSLKPEDTAVYYCATGYFCGFRYRPYYYWGQGTQVTVSS	high polyreactivity
QVQLVESGGGLVQAGGSLRLSCAASGITFPGNVMGWYRQAPGKERELVAAISTSGGSTYYADSVKGRFTISRDNAKNTVYLQMNSLKPEDTAVYYCARQYIRSSYGYWGQGTQVTVSS	low polyreactivity

Sequence	polyreactivity (PSR sort gate)
QVQLVESGGGLDQAGGSLRLSCAASGSIFFYNVLGWYRQAPGKERELVASISWRGASTYYADSVKGRFTISRDNAKNTVYLQMNSLKPEDTAVYYCAARFRSATRYQTGYYWGQGTQVTVSS	high polyreactivity
QVQLVESGGGLVQAGGSLRISCAASGIIFKGYAMGWYRQAPGKERELVAAISHNADSTYADSVKGRFTISRDNAKNTVYLQMNSLNPEDTAVYYCNADTPLRSDYWGQGTQVTVSS	low polyreactivity
QVQLVESGGGLVQAGGSLRLSCAASGLIFGYNAMGWYRQAPGKEREYVAGISVIDGRTYYADSVKGRFTISRDNAKNTVYLQMNSLKPEDTAVYYCATEGFVYSWLWEFEYWGQGNQVTVSS	low polyreactivity
QVQLVESGGGLVQAGGSLRLSCAASGYILPHNAMGWSRQAPGKDGEMVAAITSSGGSTYYADSVKGRVTISRDNAKNTVYLQMNSLKPEDTAVYYCNTDQYSPYEYSSFDSWGQGTQVTVSS	low polyreactivity
QVQLVESGGGLVQAGGSLRLSCAASGFTFLYYDMGWYRQAPGKERELVAAITSSGTSTYYADSVKGRFTISRDNAKNSVYLQMNSLKPEDTAVYYCAVMYTYAGRHRYGYWGQGTQVTVSS	high polyreactivity
QVQLVESGGCLVQAGGSLRLSCPASGSNFPDNAMGRYRPAPGKERELVAAISLSGGRTYYADSVKGRFTISRDNAKNTVYLQMNSLKPDDTAVYYCNKLTRFVKYDYWGQGTQVTVSS	high polyreactivity
QVQLVESGGGLVQAGGSLRLSCAASGSIFGINVMGWYRQAPGKERELVAAISRSGSSTYYADSVKGRFTISRDNAKNTVYLQMNSLKPEDTAVYYCNADRSTWTVLVWEYDYWGQGTQVTVSS	low polyreactivity
QVQLVESGGGLFQAGGSLRLICAASGRIFDVNAMGWYRQAPRKEREMVAAISWSGGITYYADSVKGRFTISRDNAKNTVYLQMNSLKPEDTAVYYCAADKYQGYTFYQGYPGGGGYWGQGTQVTVSS	low polyreactivity
QVQLVESGGGLVQAGGSLRLSCAASGRIFRTNAMGWYRQAPGKERELVAAITFSGGGTYYADSVKGRFTISRDNAKNTVYLQMNSLKPEDTAVYYCATDWYYEYYYWGQGTQVTVSS	low polyreactivity
QVQLVESGGGLVQAGGRLRLSCAASVRILGKYAMGWYRQAPGKERELVAAIRLRGGSTYYADSVKGRFTISRDNAKNTVYLQMNSLKPEDTAVYYCAARYWDRSQAYYYWGQGTQVTVSS	high polyreactivity
QVQLVESGGGLVQAGGSLRLTCAASGSTFAYYAMRWYRQAPGTERELVAVINGITGSTYYADSVKGRFTISRDHAKNTVYLQMNSLKPEDTAVYYCNADYAVVTDEGDYWGQGTQVTVSS	low polyreactivity
QVQLVETGGGLVQAGGSLRLSCAASGSTFAKYVMGWYRPAPGKERELVAAISRRGSSTYYADSEKGRFTISRDYAKNTVYLQMNSLKPEDTAVYYCAARFRYSGFEGMDYWGQGNQVTVSS	high polyreactivity
QVQLVESGGGLVQAGVSLRLSCAASGSTFKQYAMGWYRQAPGKERELVAAIDRGGSTYYADSVKGRFTISRDNANNTVYLQMNSLKPEYTAVYYCAARFVQYRYAFDYWGQGTQVTVSS	low polyreactivity
QVQLLESGGGVVQAGGSLRLSCAASGFTFLYNTMGGYRQAPGKVRELVAAISIRGGSTYYADSVKGRFTISRDNAKNTVYLQMNSLKPEDNAVYYCAARTPTPASRSRVYYWGHGTQVTVSS	high polyreactivity
QVQLVESGGGLVQAGGSLRLSCAASGSPFRGYAMGWYRLAPGKEREFVAAISRRGGTTYYADSVKARFTISRDNAKNTGYLQMNSLKPEDTAVYYCNKVYYQHYLPVDYWGQGTQVTVSS	high polyreactivity
QVQLVESGGGLVQAGGSLSLSCAASGRSFFNYAMGWYRQAPGKERELVAAISFSDGSTYYADSVKGRFTISRDNAKNTVYLQMNSLKPEDTAVYYCAAEPDYVYYRSDQALFDYWGQGTQVTVSS	high polyreactivity
